Experimental data taken from the supplement of paper PMC9170038.

System: K4 kissing-loop RNA reporter
Assay: apparent KD of K4 kissing-loop reporter; higher = weaker reporter binding
Details: Eterna round: R107; input ligand: arginine 13.2 mM
Protocol: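 RNA-MaP round R107: designed RNA switches with theophylline, tryptophan, arginine or FMN aptamers are transcribed on-chip within common flanks. They are titrated with a labelled K4 kissing-loop RNA reporter in RNA-MaP buffer (100 mM Tris pH 7.5, 80 mM KCl, 4 mM MgCl2), without ligand or with the indicated ligand. Median apparent KD per design.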
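Note: bound reporter read as fluorescence of individual clusters on recovered sequencing chips by microscopy, with normalized cluster intensities fitted with a binding model.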

Row | Sequence | apparent KD of K4 kissing-loop reporter [nM]
1 | AGUGAUGUUUUUUUUAAGAGUGAUGUUUUUCGAGGACCGGUACGGCCGCCACUCGAGUGAGGAGUGCGGUGGUGAGAUGUUGAGU [oomullin] | 466
2 | GUACGCUUCCGAGUGAUGUUCGGUAAUAGUUAGGAUAUCGCUUUUGCGAGAAGGAACUGAAUGAGGAAACUCGUUCGAAGUGUAC [FMN A 17] | 336
3 | CCUAUCUCAUACGAUACCAGUGAAUAACCAGUGAUGUUGGAAUAACCAAGGAAUAUUUUUCACCCUUGGCAGCGUAUGGGAUAGG [Ex Theophylline B K4 27] | 285
4 | AAGGGCGGGACUUUCUCGCCGGAUAGAGAUACCAGCCCAGCAAAGGGCCCUUGGCAGCUCACUGACCUCAGUGAUGUUGAGGUUC [Soerrainat] | 240
5 | AGACUAUCGUCAAAGACGGUAGUCAAAAGUGAGGAUAUAAGUGAUGUUAGAAGGCACUAAGACUGUAUCGAAUAGAUACGGUCAA [FmnA 2 #K4BetweenAptamer #OpenEnded] | 425
6 | CUUGAAAUGACUGAUACCAGUGAAAAUAUAUGUAGUGAUGUUAUAUACUAAUUUAAUAAGCGCCCUUGGCAGCAGUAUGAAUUAU [AstrosExc-theB#17] | 516
7 | AAAAUAACCCAGUGAUGUUGGUAACCAGAUACCAGCGACGAAAGUCGCCCUUGGCAGCUGUGGACGUACAAAAUAAGUACGUCCU | 765
8 | AAUAUAGUGAUGUUAUAUAAGAAGGAGUUACGAGGACCGGUACGGCCGCCACUCGAAACGAGUGAUGAUUUGGGAGAUUGGGUUG [SSTryptA.N] | 347
9 | AAUAUACAGGGAAGGAGCGUCGUCCAGUGAUGUUGGAGUUAAAUACCAGUGAUGUUGGUUAGGCAGGUAGGUCGCCCUAAAGUAU [KL-XARG-B15] | 68.3
10 | CUUUGGAGUGAUGUUCCAGGUUGUACGGAUACCAGCCAAGCCAGAGGCCCUUGGCAGCCGAGUAUUGCAGUGAUGUUGCGAUGGG [Same State Theophylline A GF 2] | 239
11 | ACCUUAUUUGCCAGUGAUGUUGGACAGGAAGGAGCGGGCAUAAGCCCAGGUAGGUCGCCUGUCAACUUUCUUAUAGCCCAAAGGU [KL-XArg-A18] | 253
12 | UGUACCGAGUCAGGAUAUGGCGUCGAAAGACGAAUCUUAGUGAUGUUAGGGAUCUGCGAAAGCAGUCUAGAAGGGACUUGGUACU [FmnBS 26 U37+U68] | 372
13 | UGUGCUGUGUAGUGUAAUGUUUUGCGGGAUACCAGAGUCUUUUUAUUCCCUUGGCAGCUUGAGUGAUGUUUGAUGCUGUUCUUGU [bbtbmullin] | 322
14 | GGAUAGGACAGAGGAUAUGGAGAGUCUACAAAGUAGGCUCAUAAUCCUUGAAUGGAAGUGAUGUUUCUAGAAGGCUGUCCUAUCG [FmnBX 18 - #SwitchBubble #StaticStem #Palindromic] | 135
15 | UUUAAAUAUAGUGAUGUUAUAUAACAAUGACGAGGACCGGUACGGCCGCCACUCGAGAGAGAUAAUGGUAAAAUAAAUAAUUUUC [AstrosSSTryA#3] | 585
16 | UGAUACCAGACGGCCGCCACUCCUGCAAGUCAAAGACUUGCUAAAGGAAUCGUCCAGUGAUGUUGGAGGACCGGGUCUGGUAUCU [TrypBX 18 #SwitchBubble #Palindromic #StaticStem] | 745
17 | GCCGUACGCAUGGAUACCAGAUGGCACUAUAAUCUCCCAGAGUGAUGUUCUGGCCUGCCUAUCCCUUGGCAGCCAUGCGUACGGC | 514

Row | Sequence | apparent KD of K4 kissing-loop reporter [nM]
18 | CCAUCGCUAUUCGAUACCAGCUACUUAGUGAUGUUAAGUUAAAAUUAAUUGUAGAUUAAAAGCCCUUGGCAGCGAAUAGUGAUGG [Theophylline B K4 20] | 141
19 | UGUCAUUGGUCGGCCGCCACUUCAUAAAGAGUGAUGUUCUGAAAGACGGAUCGAAAGAUCUGUCGGAGGACCGGGACCGAUGACU [FiskerMod 2 - Jieux - Same State - Tryptophan B] | 587
20 | AGCCUGAUAUAAGGAUAUCCGGACCGAGUAACUGAGUGAUGUUCAGGUGAAUAAUGUCUCACAUUGGGAGAAGGUAUUUCAGCGA [theeternabot_sameState_KL_FMN_B_21] | 182
21 | AAGGUUGUGCAUGGGAGUGAUGUUCCCACGCAGGAUAUCGCUCUCGCGAGAAGGGCGAGCACAACCGCUCAAGAAACUUGAGCAA [Omei KL FMN A SS C v3] | 320
22 | CCCUUGGUAUAUCGGUAUGUAUAAGCGGAUACCAGCCAGGACAACGGCCCUUGGCAGCCGGGCAGGCAGAGUGAUGUUCAUGCUA [theeternabot_exclusion_KL_Theo_A_22] | 368
23 | GCGUCCAUGUAUGAUACCAGACUUUUUUUAGUAGGUGACGAUAGUGAUGUUAUACGUCAAGUCCCUUGGCAGCAUGACCUAUUAU [theeternabot_exclusion_KL_Theo_B_23] | 461
24 | AACUUUUAAUGAAUUACAUUUUAUUUUUCUCGAGGACCGGUACGGCCGCCACUCGUACUAUAGUGAUGUUAUAGAUAAGUCCUAA [JR_ExcTryptoA_Sub020] | 182
25 | AAACAUUGGUGCGAUACCAGCUGAUCGGAAACGAUCUUGCUGGAGUGAUGUUCCAAGUAAAGCCCUUGGCAGCGCACCGAUGAAA [MAT - Same State Theophlline B - Mod of Eli - D21] | 31.7
26 | CUUGGUCUACGAAGGAGCGCCGUGCAGUGAUGUUGCAGUCAGAUCGAGUGAUGUUUCGGGCGGCAGGUAGGUCGCGUGGCCCUCU [Excusion Arginine B GF 27] | 437
27 | AUGAGGAACAGUGAUCCUAUUCCAUGGGAAGGAGCGUAGGAUACUACAGGUAGGUCGCCCAGUGAUGUUGGGCGCGUGUUCUUGG [Soririza] | 112
28 | GCGCGCGGCGGAGGAUAUAGCCGGUGGUCCGGGAAAGUGAGUGAUGUUCGCGGAGUUCUGGAUAUGUUAGAAGGCCGCCGCGCGC [qwertyuiopasdfghjklzxcvbnm] | 857
29 | GGGAAACCCAAUCAUACGGCGGUUCUUAGUCGAGGACCGGUACGGCCGCCACUCGAACUUGCUAGUGAUGUUAGCUUAUCGAGCU | 296
30 | GCUAUGGUAGGAAGGAGCGCUUAUUUAUUAAUAAGAGUGAUGUUCGAUAAUAAAUAUUUAUAGCAGGUAGGUCGCCUACUAUAGC [Arginine B K4 1] | 219
31 | UUUUGGCCAACGGCCGCCACUCACUAGUGAUGUUAGUUUGUGUUAUUCAUGAACCCGAUGUCGUCGAGGACCGGGUUGGGUUAUA [theeternabot_exclusion_KL_Trp_B_41] | 197
32 | UUGUUUGGUUGAGAGGUUGGGCGAGAUGAUACCAGUAGAGAAGAAUACCCUUGGCAGCAUAAGAAAGAUAUAGUGAUGUUGUAUA [SSTheophA.O] | 356
33 | CAGCGGAGUGAUGUUCUGCUUACUCCGGAUACCAGCUUCGCCAGAGGCCCUUGGCAGCCGGGCGGCUCAGUGAUGUUGGGUUGCU [Same State Theophylline A GF 16] | 532

Same assay, conditions: Eterna round: R107; input ligand: none

Row | Sequence | apparent KD of K4 kissing-loop reporter [nM]
34 | AAGCAUUCUUCGGAAUGCAGACCCGCUGAGGAGGAUAUGACGAAAGUCAGAAGGUCUCAGUGAUGUUGAGGCCUCCUCAAUGGUC [whbob_Ex_FMNA__2th181] | 155
35 | CGUGAGUGAUGUUCACGAUGCUUCAAUCUAGAGGAUAUUCACGAUCGAAGAAGGCUGGACAAGUGCUGUCUCAUGACAGAUAAGG [FMN A SS t4] | 287
36 | UGUGUUUACCUGACUCAGUGAUGUUGAGAAGGAGCGUGCGAAUGCACAGGUAGGUCGCUCAACCUAAAUUCAGGUGAGCACUAAA | 408
37 | UGUGCCAACAGCGAUACCAGCCCGGCAGUGAUGUUGCCGGACGGAGUGAUGUUCCGGCAGGGCCCUUGGCAGCGCAGAAGCGCGA [Exclusion Theophylline B Gf 28] | 261
38 | UUCCAGUGAUGUUGGUAUCUGAUAAGGGAAGGAGCGCGGAUUAACGCAGGUAGGUCGCCCAAGUAAUAAAUGUUUAUUAAUUGAU [Default title] | 201
39 | UCUGCUGUAUAUGAUACCAGCAGUGAGAGACGAGAAGUAUAGUGAUGUUAUAUGAGAGAAUGCCCUUGGCAGCGUGUGCGUGUGG [SSTheophylB.aA] | 74.4
40 | ACAAGGGAUCCAGAUACCAGCACUCAAGGAGCUAUAUCAGCGAGUGAUGUUCGUUCAUAGUGCCCUUGGCAGCUGUACUUCCUUG [Essoengeis] | 123
41 | AAACAUCACUGGGAGUGAUGUUCUCAGUGACGAGGACCGGUACGGCCGCCACUCGCGAGAGAUAUAAUUAAGUAAUGACUUCAUU [Excl Tryptophan A V7] | 231
42 | UCUUUUGUAUAUGAUACCAGCAGUGAGAGACAGGAAGUAUAGUGAUGUUAUAUGAGAGAAUGCCCUUGGCAGCGUGUGCGGUUGG [SSTheophylB.V] | 322
43 | UUAGUCUAGAGAAGGAGCGAGUGAUGUUCGCAUGAUCUCAUGAUAUCAUGAGAUCGAAAUCCUCAGGUAGGUCGCUCUAGACAUU [AK6 Exc Arginine B] | 534
44 | AGUGAUGUUUUUUUUAAGAGUGAUGUUUUUCGAGGACCGGUACGGCCGCCACUCGAGUGAGGAGUGCGGUGGUGAGAUGUUGAGU [oomullin] | 677
45 | GUACGCUUCCGAGUGAUGUUCGGUAAUAGUUAGGAUAUCGCUUUUGCGAGAAGGAACUGAAUGAGGAAACUCGUUCGAAGUGUAC [FMN A 17] | 540
46 | CCUAUCUCAUACGAUACCAGUGAAUAACCAGUGAUGUUGGAAUAACCAAGGAAUAUUUUUCACCCUUGGCAGCGUAUGGGAUAGG [Ex Theophylline B K4 27] | 378
47 | AAGGGCGGGACUUUCUCGCCGGAUAGAGAUACCAGCCCAGCAAAGGGCCCUUGGCAGCUCACUGACCUCAGUGAUGUUGAGGUUC [Soerrainat] | 242
48 | AGACUAUCGUCAAAGACGGUAGUCAAAAGUGAGGAUAUAAGUGAUGUUAGAAGGCACUAAGACUGUAUCGAAUAGAUACGGUCAA [FmnA 2 #K4BetweenAptamer #OpenEnded] | 721
49 | CUUGAAAUGACUGAUACCAGUGAAAAUAUAUGUAGUGAUGUUAUAUACUAAUUUAAUAAGCGCCCUUGGCAGCAGUAUGAAUUAU [AstrosExc-theB#17] | 868
50 | AAAAUAACCCAGUGAUGUUGGUAACCAGAUACCAGCGACGAAAGUCGCCCUUGGCAGCUGUGGACGUACAAAAUAAGUACGUCCU | 859
51 | AAUAUAGUGAUGUUAUAUAAGAAGGAGUUACGAGGACCGGUACGGCCGCCACUCGAAACGAGUGAUGAUUUGGGAGAUUGGGUUG [SSTryptA.N] | 489
52 | AAUAUACAGGGAAGGAGCGUCGUCCAGUGAUGUUGGAGUUAAAUACCAGUGAUGUUGGUUAGGCAGGUAGGUCGCCCUAAAGUAU [KL-XARG-B15] | 86.7
53 | CUUUGGAGUGAUGUUCCAGGUUGUACGGAUACCAGCCAAGCCAGAGGCCCUUGGCAGCCGAGUAUUGCAGUGAUGUUGCGAUGGG [Same State Theophylline A GF 2] | 282
54 | ACCUUAUUUGCCAGUGAUGUUGGACAGGAAGGAGCGGGCAUAAGCCCAGGUAGGUCGCCUGUCAACUUUCUUAUAGCCCAAAGGU [KL-XArg-A18] | 396
